The labels stand for the following.
T1: EsCas13d, nuclease-dead (Eubacterium siraeum, UniProt B0MS50, R295A;H300A;R849A;H854A)
T1 sequence: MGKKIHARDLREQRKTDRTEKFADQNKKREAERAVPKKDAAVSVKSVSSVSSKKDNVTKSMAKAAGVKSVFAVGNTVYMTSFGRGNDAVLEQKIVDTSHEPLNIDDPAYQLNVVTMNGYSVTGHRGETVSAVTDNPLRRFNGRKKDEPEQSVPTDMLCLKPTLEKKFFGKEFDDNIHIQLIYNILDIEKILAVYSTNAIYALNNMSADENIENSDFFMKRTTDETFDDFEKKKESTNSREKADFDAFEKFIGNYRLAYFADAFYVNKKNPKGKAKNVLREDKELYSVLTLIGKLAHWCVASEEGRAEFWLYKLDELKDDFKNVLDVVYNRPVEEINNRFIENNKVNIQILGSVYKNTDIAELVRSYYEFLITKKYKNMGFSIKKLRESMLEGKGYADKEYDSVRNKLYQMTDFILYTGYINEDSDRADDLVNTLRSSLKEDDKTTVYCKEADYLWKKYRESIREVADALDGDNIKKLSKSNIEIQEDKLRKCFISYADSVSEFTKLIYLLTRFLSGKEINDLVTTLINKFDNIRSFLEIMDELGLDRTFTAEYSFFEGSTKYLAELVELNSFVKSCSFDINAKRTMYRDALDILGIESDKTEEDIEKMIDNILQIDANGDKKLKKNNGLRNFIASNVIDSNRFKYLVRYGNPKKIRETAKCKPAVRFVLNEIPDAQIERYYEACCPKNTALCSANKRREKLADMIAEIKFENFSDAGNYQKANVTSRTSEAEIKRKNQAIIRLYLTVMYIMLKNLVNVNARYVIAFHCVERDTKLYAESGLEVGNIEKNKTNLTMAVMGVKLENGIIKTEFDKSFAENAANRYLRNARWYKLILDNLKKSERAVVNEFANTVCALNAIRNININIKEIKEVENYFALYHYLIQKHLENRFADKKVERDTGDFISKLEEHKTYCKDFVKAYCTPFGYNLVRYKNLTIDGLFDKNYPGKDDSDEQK

B1: target 1 G12A,A14G (mixed)
RNA 1: CACCCGUGCAAAAAUGCAGGGGUCUAAAACUGAGCGGAUAACCUCUCUAUGG
RNA 2: GGGAAUGGAUCCACAUCUACGAAUUCGUACCAUAGAGGGAUUAUCCGCUCACCGAGAUCGGAAGAGCACACGU
B2: target 1 del12,del13 (mixed)
RNA 1: CACCCGUGCAAAAAUGCAGGGGUCUAAAACUGAGCGGAUAACCUCUCUAUGG
RNA 2: GGGAAUGGAUCCACAUCUACGAAUUCGUACCAUAGAGAUUAUCCGCUCACCGAGAUCGGAAGAGCACACGU
B3: target 1 C4U,C6U (mixed)
RNA 1: CACCCGUGCAAAAAUGCAGGGGUCUAAAACUGAGCGGAUAACCUCUCUAUGG
RNA 2: GGGAAUGGAUCCACAUCUACGAAUUCGUACCAUAGAGAGGUUAUCUGUUCACCGAGAUCGGAAGAGCACACGU
B4: target 1 C2A,U8G (mixed)
RNA 1: CACCCGUGCAAAAAUGCAGGGGUCUAAAACUGAGCGGAUAACCUCUCUAUGG
RNA 2: GGGAAUGGAUCCACAUCUACGAAUUCGUACCAUAGAGAGGUUAGCCGCUAACCGAGAUCGGAAGAGCACACGU
B5: target 1 C7U,U8A (mixed)
RNA 1: CACCCGUGCAAAAAUGCAGGGGUCUAAAACUGAGCGGAUAACCUCUCUAUGG
RNA 2: GGGAAUGGAUCCACAUCUACGAAUUCGUACCAUAGAGAGGUUAAUCGCUCACCGAGAUCGGAAGAGCACACGU
B6: target 1 insU 3' of 5 (mixed)
RNA 1: CACCCGUGCAAAAAUGCAGGGGUCUAAAACUGAGCGGAUAACCUCUCUAUGG
RNA 2: GGGAAUGGAUCCACAUCUACGAAUUCGUACCAUAGAGAGGUUAUCCGUCUCACCGAGAUCGGAAGAGCACACGU
B7: target 1 insG 3' of 16,insC 3' of 16 (mixed)
RNA 1: CACCCGUGCAAAAAUGCAGGGGUCUAAAACUGAGCGGAUAACCUCUCUAUGG
RNA 2: GGGAAUGGAUCCACAUCUACGAAUUCGUACCAUAGAGCGAGGUUAUCCGCUCACCGAGAUCGGAAGAGCACACGU
B8: target 1 insA 3' of 21,insA 3' of 4 (mixed)
RNA 1: CACCCGUGCAAAAAUGCAGGGGUCUAAAACUGAGCGGAUAACCUCUCUAUGG
RNA 2: GGGAAUGGAUCCACAUCUACGAAUUCGUACCAAUAGAGAGGUUAUCCGCAUCACCGAGAUCGGAAGAGCACACGU
B9: target 1 insA 3' of 22,insC 3' of 12 (mixed)
RNA 1: CACCCGUGCAAAAAUGCAGGGGUCUAAAACUGAGCGGAUAACCUCUCUAUGG
RNA 2: GGGAAUGGAUCCACAUCUACGAAUUCGUACACAUAGAGAGGCUUAUCCGCUCACCGAGAUCGGAAGAGCACACGU
B10: target 1 C2G,U3G (mixed)
RNA 1: CACCCGUGCAAAAAUGCAGGGGUCUAAAACUGAGCGGAUAACCUCUCUAUGG
RNA 2: GGGAAUGGAUCCACAUCUACGAAUUCGUACCAUAGAGAGGUUAUCCGCGGACCGAGAUCGGAAGAGCACACGU
B11: target 1 U8C,A16C (mixed)
RNA 1: CACCCGUGCAAAAAUGCAGGGGUCUAAAACUGAGCGGAUAACCUCUCUAUGG
RNA 2: GGGAAUGGAUCCACAUCUACGAAUUCGUACCAUAGCGAGGUUACCCGCUCACCGAGAUCGGAAGAGCACACGU
B12: target 1 G12C,G13C (mixed)
RNA 1: CACCCGUGCAAAAAUGCAGGGGUCUAAAACUGAGCGGAUAACCUCUCUAUGG
RNA 2: GGGAAUGGAUCCACAUCUACGAAUUCGUACCAUAGAGACCUUAUCCGCUCACCGAGAUCGGAAGAGCACACGU
B13: target 1 insU 3' of 18,insU 3' of 18 (mixed)
RNA 1: CACCCGUGCAAAAAUGCAGGGGUCUAAAACUGAGCGGAUAACCUCUCUAUGG
RNA 2: GGGAAUGGAUCCACAUCUACGAAUUCGUACCAUAUUGAGAGGUUAUCCGCUCACCGAGAUCGGAAGAGCACACGU
B14: target 1 insC 3' of 18,insC 3' of 15 (mixed)
RNA 1: CACCCGUGCAAAAAUGCAGGGGUCUAAAACUGAGCGGAUAACCUCUCUAUGG
RNA 2: GGGAAUGGAUCCACAUCUACGAAUUCGUACCAUACGAGCAGGUUAUCCGCUCACCGAGAUCGGAAGAGCACACGU
B15: target 1 insA 3' of 5,insG 3' of 2 (mixed)
RNA 1: CACCCGUGCAAAAAUGCAGGGGUCUAAAACUGAGCGGAUAACCUCUCUAUGG
RNA 2: GGGAAUGGAUCCACAUCUACGAAUUCGUACCAUAGAGAGGUUAUCCGACUCGACCGAGAUCGGAAGAGCACACGU
B16: target 1 insC 3' of 22,insA 3' of 10 (mixed)
RNA 1: CACCCGUGCAAAAAUGCAGGGGUCUAAAACUGAGCGGAUAACCUCUCUAUGG
RNA 2: GGGAAUGGAUCCACAUCUACGAAUUCGUACCCAUAGAGAGGUUAAUCCGCUCACCGAGAUCGGAAGAGCACACGU
B17: target 1 insA 3' of 22,insA 3' of 13 (mixed)
RNA 1: CACCCGUGCAAAAAUGCAGGGGUCUAAAACUGAGCGGAUAACCUCUCUAUGG
RNA 2: GGGAAUGGAUCCACAUCUACGAAUUCGUACACAUAGAGAGAGUUAUCCGCUCACCGAGAUCGGAAGAGCACACGU
B18: target 1 G12A,C21A (mixed)
RNA 1: CACCCGUGCAAAAAUGCAGGGGUCUAAAACUGAGCGGAUAACCUCUCUAUGG
RNA 2: GGGAAUGGAUCCACAUCUACGAAUUCGUACAAUAGAGAGAUUAUCCGCUCACCGAGAUCGGAAGAGCACACGU
B19: target 1 insU 3' of 1,insG 3' of 1 (mixed)
RNA 1: CACCCGUGCAAAAAUGCAGGGGUCUAAAACUGAGCGGAUAACCUCUCUAUGG
RNA 2: GGGAAUGGAUCCACAUCUACGAAUUCGUACCAUAGAGAGGUUAUCCGCUCAUGCCGAGAUCGGAAGAGCACACGU
B20: target 1 insC 3' of 20,insU 3' of 7 (mixed)
RNA 1: CACCCGUGCAAAAAUGCAGGGGUCUAAAACUGAGCGGAUAACCUCUCUAUGG
RNA 2: GGGAAUGGAUCCACAUCUACGAAUUCGUACCACUAGAGAGGUUAUCUCGCUCACCGAGAUCGGAAGAGCACACGU
B21: target 1 insA 3' of 19,insG 3' of 3 (mixed)
RNA 1: CACCCGUGCAAAAAUGCAGGGGUCUAAAACUGAGCGGAUAACCUCUCUAUGG
RNA 2: GGGAAUGGAUCCACAUCUACGAAUUCGUACCAUAAGAGAGGUUAUCCGCUGCACCGAGAUCGGAAGAGCACACGU
B22: target 1 insU 3' of 22,insG 3' of 6 (mixed)
RNA 1: CACCCGUGCAAAAAUGCAGGGGUCUAAAACUGAGCGGAUAACCUCUCUAUGG
RNA 2: GGGAAUGGAUCCACAUCUACGAAUUCGUACUCAUAGAGAGGUUAUCCGGCUCACCGAGAUCGGAAGAGCACACGU
B23: target 1 G13C,G15A (mixed)
RNA 1: CACCCGUGCAAAAAUGCAGGGGUCUAAAACUGAGCGGAUAACCUCUCUAUGG
RNA 2: GGGAAUGGAUCCACAUCUACGAAUUCGUACCAUAGAAACGUUAUCCGCUCACCGAGAUCGGAAGAGCACACGU
B24: target 1 insU 3' of 1,insC 3' of 1 (mixed)
RNA 1: CACCCGUGCAAAAAUGCAGGGGUCUAAAACUGAGCGGAUAACCUCUCUAUGG
RNA 2: GGGAAUGGAUCCACAUCUACGAAUUCGUACCAUAGAGAGGUUAUCCGCUCAUCCCGAGAUCGGAAGAGCACACGU
B25: target 1 C4G,C22A (mixed)
RNA 1: CACCCGUGCAAAAAUGCAGGGGUCUAAAACUGAGCGGAUAACCUCUCUAUGG
RNA 2: GGGAAUGGAUCCACAUCUACGAAUUCGUAACAUAGAGAGGUUAUCCGGUCACCGAGAUCGGAAGAGCACACGU
B26: target 1 U10A,G13A (mixed)
RNA 1: CACCCGUGCAAAAAUGCAGGGGUCUAAAACUGAGCGGAUAACCUCUCUAUGG
RNA 2: GGGAAUGGAUCCACAUCUACGAAUUCGUACCAUAGAGAAGUAAUCCGCUCACCGAGAUCGGAAGAGCACACGU
B27: target 1 U3A,C6A (mixed)
RNA 1: CACCCGUGCAAAAAUGCAGGGGUCUAAAACUGAGCGGAUAACCUCUCUAUGG
RNA 2: GGGAAUGGAUCCACAUCUACGAAUUCGUACCAUAGAGAGGUUAUCAGCACACCGAGAUCGGAAGAGCACACGU

The data set deals with T1, EsCas13d, nuclease-dead. The experiment in a line: crRNA (strand 1, pre-loaded); Mg2+; 40 mM Tris-HCl pH 7.5, 150 mM NaCl, 6 mM MgCl2, 1 mM DTT, 0.1% Tween-20, 0.2 mg/ml BSA; 25 C; 10 min per concentration, then washed. The following applies: tags: His6-TwinStrep-SUMO cleaved; N-terminal SNAP kept (SNAP-Surface 488); label: 3' end held by stalled T7 RNA polymerase.
As usually defined, the Kd is the concentration at which binding is half-saturated. Low values mean higher affinity, high ones lower affinity. The molecule B1 returned a Kd of 41 ± 6 nM.
Then B2, with 18.6 ± 1.8 nM; and B3, with 28 ± 8 nM; and B4, with 19.4 ± 1.3 nM.
Consider B5, for which the Kd was 12.9 ± 0.7 nM.
Under B6 stands 18.1 ± 2.5 nM; under B7, 31.5 ± 1.8 nM.
Then B8, with 10.2 ± 1.3 nM; and B9, with 20.1 ± 1.2 nM.
Then B10, with 4.43 ± 0.34 nM; and B11, with 77 ± 5 nM.
Molecule B12 returned a Kd of 30 ± 6 nM.
Then B13, with 30.9 ± 2 nM.
Under B14 stands 56 ± 8 nM; under B15, 8.3 ± 0.7 nM.
Under B16 stands 28.2 ± 3.4 nM; under B17, 6 ± 0.4 nM.
In turn, B18 registered a Kd of 34.8 ± 2.2 nM.
In the case of B19, the Kd was 11.6 ± 1 nM.
Under B20 stands 13.2 ± 1 nM.
Then B21, with 13.2 ± 0.6 nM.
Then B22, with 34 ± 7 nM.
For the molecule B23, the equilibrium dissociation constant (Kd) turned out to be 46 ± 9 nM.
Then B24, with 11.6 ± 0.6 nM; and B25, with 5.9 ± 0.4 nM.
Under B26 stands 9.5 ± 1 nM; under B27, 5.02 ± 0.21 nM.

Values taken from article PMC10786891, “Massively parallel profiling of RNA-targeting CRISPR-Cas13d”.
